Results on two molecules are retold here after US20230357391A1 (EXELIXIS, published 2023).

What is called IC50 is the concentration that inhibits the measured activity by half. A high value points to a need for much substance. For orientation: EC50 means the concentration at which the effect is half-maximal. A high value points to a need for much substance.

Experiment [1] addresses T1, human CD47 on cells (human, UniProt Q08722 19-323). Nature of the experiment: cell-based or functional assay.
The target of experiment [2] is T1, human CD47 on cells. Nature of the experiment: flow cytometry, MDA-MB-231 cells.
Protocol: Cells were harvested at 70-90% confluence on the day of the assay. Cells were collected by centrifugation at 200xg for 5 minutes and media was removed. Cells were resuspended at 2×10⁶ cells per mL in cold PBS. An 8-point antibody dilution series (2x concentration) was prepared in PBS to cover the expected binding affinities of the antibodies being tested. […] 50 µL per well of cell suspension was added. Plates were placed at 4° C. for 45-60 minutes.
Cells were collected by centrifugation at 400xg for 7 minutes and secondary antibody was removed. Cells were resuspended in 50 µL per well of PBS and analyzed by flow cytometry. Binding curves were calculated using the mean fluorescence intensity (MFI) of the FITC fluorescence signal on the cells.
The target of another experiment is T2, mouse CD47 (mouse, UniProt Q61735-2 19-158, limits assumed, biotinylated).
T2 construct: also called mCD47
T2 sequence (looked up): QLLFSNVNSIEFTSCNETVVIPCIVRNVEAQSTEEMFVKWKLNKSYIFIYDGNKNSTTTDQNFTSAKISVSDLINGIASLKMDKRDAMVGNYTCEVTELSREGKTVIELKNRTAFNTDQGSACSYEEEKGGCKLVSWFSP
The experiment can be described thus: BLI (Octet), mouse CD47 on sensor; X = no mouse cross-reactivity. On the technique in general: BLI is a label-free optical method that tracks binding on a fibre tip over time.

Residue numbers refer to the chain shown, from its start. “And” between values parts separate entries of the source, which are not always exact repeats. Equal entries are not always repeated.

Description for mouse CD47: Mouse CD47 was obtained from Acro Biosystems (Acro Cat. No. CD7-M82E4, Acro Cat. No. CD7-M522b) and biotinylated using standard protocols. The free biotin was removed by extensive dialysis against PBS. Biotinylated antigen (CD47) was immobilized on a streptavidin sensor. The cross-reactive antibodies were identified by the association to mouse CD47 using Octet.

B1: Antibody C40 (antibody, human IgG1, kappa, V domains shown)
VH: EVQLVESGGGLVQPGGSLRLSCAASGFTFSYYYIHWVRQAPGKGLEWVAWIDPYGHSTTYADSVKGRFTISADTSKNTAYLQMNSLRAEDTAVYYCARGGRGAMDYWGQGTLVTAST
VL: DIQMTQSPSSLSASVGDRVTITCRASQSVSSAVAWYQQKPGKAPKLLIYSASSLYSGVPSRFSGSRSGTDFTLTISSLQPEDFATYYCQQRYSSLLTFGQGTKVEIKR
notes: Full length IgG
As for B1, inhibition in the experiment with human CD47 on cells [1] was half-maximal at 5.38 nM (IC50). In addition, the EC50 with human CD47 on cells [2] is more than 1000 nM.

B2: Antibody C59 (antibody, human IgG1, kappa, V domains shown)
VH: B1 VH with S30T, Y31S, W50Y, P53S, Y54K, G55H, H56G, S57T, T59Q, G102S
VL: B1 VL with Y92T, S93T
notes: Full length IgG
As for B2, the half-maximal inhibitory concentration (IC50) in the experiment with human CD47 on cells [1] was 140 nM. In addition, in the experiment with human CD47 on cells [2], the EC50 was 200 to 1000 nM and 550 nM. In the experiment with mouse CD47, the binding result is “no binding”.
